The source of these data is US20180360879A1 (CANCURE, published 2018).

The target in this test is T1, murine 4-1BBL expressed on the surface of B16-F10 and B16-F10/4-1BBL melanoma cells (mouse, UniProt P41274 1-309).
T1 construct: whole, on cells; also called 4-1BB ligand; mouse 4-1BBL
T1 sequence (looked up): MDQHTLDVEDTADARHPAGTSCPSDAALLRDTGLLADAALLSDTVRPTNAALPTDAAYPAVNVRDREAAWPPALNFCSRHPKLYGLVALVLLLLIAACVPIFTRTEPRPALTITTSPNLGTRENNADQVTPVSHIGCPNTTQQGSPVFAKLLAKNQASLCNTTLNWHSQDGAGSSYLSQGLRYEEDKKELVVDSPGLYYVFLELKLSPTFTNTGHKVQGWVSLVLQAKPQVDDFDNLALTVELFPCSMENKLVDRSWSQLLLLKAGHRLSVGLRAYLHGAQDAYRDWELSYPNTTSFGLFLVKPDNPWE
The test can be described thus: flow cytometry; cells incubated with the chimera, detected with PE-conjugated IgG Fcγ Ab. Here is the method:
FIG. 2. B16-F10-4-1BBL cells express functional 4-1BBL binding to 4-1BB. Cells were incubated with 41BB/TNFRSF9/Fc chimera and stained using a PE-conjugated IgG Fcγ Ab to detect binding to 4-1BBL, measured using the FACSCalibur flow cytometer. The black and the green histograms represent the unstained control samples of B16-F10 and B16-F10-4/1BBL sorted cells respectively. The red and the purple histograms show the B16-F10 and B16-F10/4-1BBL cells respectively stained only with the IgG Fcγ PE secondary Ab. The blue histogram represents the B16-F10 cells incubated with the 4-1BB/TNFRSF9/Fc Chimera and stained with the IgG Fcγ PE secondary Ab. The maroon histogram depicts populations of cells further subjected to sorting for 4-1BBL, re-expanded in culture before immunostaining with the 41BB/TNFRSF9/Fc chimera and the IgG Fcγ PE secondary Ab
To further test that the 4-1BBL expressed on the B16-F10/4-1BBL cells was intact and functional, an additional assay was performed for the binding of 4-1BBL on the cells to its receptor, 4-1BB. […]
Transfection efficiency was determined by staining B16-F10 sublines with antibodies to detect the cell surface markers, B7.1 and 4-1BBL. […] The presence of both of these cell surface molecules were detected using either flow cytometer. […]

B1: recombinant mouse 4-1BB/Fc chimera (Fc fusion, UniProt P20334 24-187, looked up)
chain: VQNSCDNCQPGTFCRKYNPVCKSCPPSTFSSIGGQPNCNICRVCAGYFRFKKFCSSTHNAECECIEGFHCLGPQCTRCEKDCRPGQELTKQGCKTCSLGTFNDQNGTGVCRPWTNCSLDGRSVLKTGTTEKDVVCGPPVVSFSPSTTISVTPEGGPGGHSLQVL
notes: Bought reagent; It calls it a 'primary antibody', but it is the receptor 4-1BB fused to Fc; also called 4-1BB/TNFRSF9/Fc Chimera; 41BB/TNFRSF9/Fc chimera; not shown: Fc part of the chimera
As to B1, the binding result was “binds”.
